Test results taken from patent US10725049B2, “Methods of detecting and measuring glutamine and analogues thereof, and methods related thereto” (Victoria Link Limited, priority 2013, dated 2020).
Peptide text beside a SMILES is read from it.

What was measured:
[1] = biological target: T1, BpsA (Streptomyces lavendulae, UniProt Q1MWN4); experiment: BpsA-mediated synthesis of indigoidine-related pigments from glutamine analogues; type: biochemical; details: 4 mM substrate, 1.66 μM BpsA, 25° C., 72 hours
Procedure: For these experiments, BpsA activation was carried out as noted in Example 1. Pre-activated BpsA was incubated at 25° C. for 72 hours in reaction buffer amended with 4 mM of either L-glutamine, L-glycine-L-glutamine (glycyl glutamine), L-alanine-L-glutamine (alanyl glutamine), N-trifluoracetyl-L-glutamine, or no substrate as a control. Pre-activated and buffered BpsA at a final concentration of 1.66 μM was added to a reaction buffer containing 4 mM of each L-glutamine derivative in a final reaction volume of 1000 μL. This was then incubated al 25° C. for 72 hours. Each reaction tube was centrifuged and the supernatant removed. The indigoidine derivatives were then resuspended in 100 μL of 99.9% DMSO to solubilise the precipitated pigment.
The structures of each substrate and the predicted structure of the cyclised indigoidine-like product potentially produced in each reaction are depicted in FIGS. […]. […] The relative absorbance levels of each reaction at the end of the 72 hour incubation period are illustrated in FIG. 8E.

[2] = biological target: T1, BpsA; experiment: Activation of apo-BpsA to holo-BpsA by PPTase, read out as indigoidine synthesis (A590); type: biochemical; details: in vitro, purified His6-tagged PPTase
Procedure: Apo-BpsA was converted to holo-BpsA in vitro, post-purification, as follows. Purified BpsA and Sfp were obtained by standard Ni/NTA chromatography following their expression as His6-tagged recombinant polypeptides. The bpsA and sfp genes were cloned into and expressed from plasmid pET28a+ in E. coli BL21 (DE3) cells, as described for BpsA and other PPTases by Owell et al (2011), with the modification that BpsA expression and purification was performed in an entD gene-deleted strain of E.coli BL21(DE3). This was done to avoid any activation of BpsA by endogenous EntD PPTase prior to BpsA purification.
Reagents were added to a 15 ml tube. This was vortexed for two seconds and transferred to a 30° C. shaking incubator (200 rpm) for 20 minutes to enable 4′-PP attachment to occur. A negative control was set up in the same manner, omitting Sfp and adding 88.16 μL of ddH2O instead of 84.48 μL of ddH2O.
Indigoidine synthesis reactions were performed in triplicate in a 96 well plate to assess whether activated BpsA was generated. For these reactions, 50 μL of 50 mM Tris-HCl, 10 mM MgCl2 in ddH2O was added to each of six wells. […] The 96 well plate was shaken at 1000 rpm and the A590 values (absorbance at 590 nm) were recorded for each well every twenty seconds for 60 minutes. […]

[3] = BpsA functionality (indigoidine synthesis from L-glutamine) in the presence of DMSO; type: biochemical
Procedure: In these experiments, samples of 500 μM L-glutamine were prepared in ddH2O amended with DMSO to a final DMSO concentration (v/v) of either 0%, 10%, 20%, 30% or 35%. A master mix with final reagent concentrations as indicated in Table 5 was prepared and dispensed into 18 wells of a fresh 96 well plate at a volume of 20 μL per well.
To test whether full L-glutamine conversion had been achieved in the presence of DMSO, 180 μL of DMSO heated to 50° C. was then added to each well to completely solubilise the indigoidine. The 96 well plate was then incubated at room temperature with shaking at 2500 rpm for 10 minutes. Following this, a single A590 reading was taken and the average of the triplicate values were graphed (FIG. 5B).

[4] = Stability of BpsA over time on storage; type: physicochemical; details: 24 weeks
Procedure: To monitor stability of Bps A over time after storage at these conditions, two BpsA samples were stored, one at 25° C. and one at 4° C. The two samples were then compared to recently purified BpsA. The BpsA stored at 4° C. retained 96% activity and the BpsA stored at 25° C. retained 15% activity after 24 weeks compared to the recently purified BpsA.

NC(=O)CC[C@H](NC(=O)C(F)(F)F)C(=O)O [N-trifluoroacetyl-L-glutamine]
Pigment formation by pre-activated BpsA from the substrate [1]: used to produce indigoidine-like pigments

C[C@H](N)C(=O)N[C@@H](CCC(N)=O)C(=O)O [alanyl glutamine, L-alanine-L-glutamine] (H-Ala-Gln-OH)
Pigment formation by pre-activated BpsA from the substrate [1]: used to produce indigoidine-like pigments

NCC(=O)N[C@@H](CCC(N)=O)C(=O)O [glycyl-glutamine, L-glycine-L-glutamine] (H-Gly-Gln-OH)
Pigment formation by pre-activated BpsA from the substrate [1]: used to produce indigoidine-like pigments

B1: Sfp: PPTase from Bacillus subtilis (protein)
chain: MKIYGIYMDRPLSQEENERFMSFISPEKREKCRRFYHKEDAHRTLLGDVLVRSVISRQYQLDKSDIRFSTQEYGKPCIPDLPDAHFNISHSGRWVICAFDSQPIGIDIEKTKPISLEIAKRFFSKTEYSDLLAKDKDEQTDYFYHLWSMKESFIKQEGKGLSLPLDSFSVRLHQDGQVSIELPDSHSPCYIKTYEVDPGYKMAVCAAHPDFPEDITMVSYEELL
modifications: left off: small tags and cut ends
notes: PPTase from Bacillus subtilis
Ability of PPTase to activate BpsA [2]: effective means of pre-activating BpsA

B2: BpsA: single module non-ribosomal peptide synthetase from Streptomyces lavendulae, SEQ ID NO:2 (protein, listed as Streptomyces lavendulae)
chain: MTLQETSVLEPTLQGTTTLPGLLAQRVAEHPEAIAVAYRDDKLTFRELASRSAALADYLEHLGVSADDCVGLFVEPSIDLMVGAWGILNAGAAYLPLSPEYPEDRLRYMIENSETKIILAQQRLVSRLRELAPKDVTIVTLRESEAFVRPEGTEAPAARSARPDTLAYVIYTSGSTGKPKGVMIEHRSIVNQLGWLRETYAIDRSKVILQKTPMSFDAAQWEILSPANGATVVMGAPGVYADPEGLIETIVKHNVTTLQCVPTLLQGLIDTEKFPECVSLQQIFSGGEALSRLLAIQTTQEMPGRALINVYGPTETTINSSSFPVDPADLDEGPQSISIGSPVHGTTYHILDKETLKPVGVGEIGELYIGGIQLARGYLHRDDLTAERFLEIELEEGAEPVRLYKTGDLGQWNNDGTVQFAGRADNQVKLRGYRVELDEISLAIENHDWVRNAAVIVKNDGRTGFQNLIACIELSEKEAALMDQGNHGSHHASKKSKLQVKAQLSNPGLRDDAELAARPAFDLEGAEPTPEQRARVFARKTYRFYEGGAVTQADLLGLLGATVTAGYSRKAADLAPAELGQILRWFGQYISEERLLPKYGYASPGALYATQMYFELEGVGGLKPGYYYYQPVRHQLVLISEREATGKATAQIHFIGKKSGIEPVYKNNILEVLEIETGHMVGLFEQILPAYGLDIHDRAYEPAVKDLLDVADEDYYLGTFELVPHAGARDDQAEVYVQTHGGKVAGLPEGQYRYENGELTRFSDDIVLKKHVIAINQSVYQAASFGISVYSRAEEEWLKYITLGKKLQHLMMNGLNLGFMSSGYSSKTGNPLPASRRMDAVLGANGVDSAPMYFFVGGRISDEQIGHEGMREDSVHMRGPAELIRDDLVSFLPDYMIPNRVVVFDRLPLSANGKIDVKALAASDQVNAELVERPFVAPRTETEKEIAAVWEKALRRENASVQDDFFESGGNSLIAVGLVRELNARLGVSLPLQSVLESPTIEKLARRLEREVAQESSRFVRLHAETGKARPVICWPGLGGYPMNLRSLAGEIGLGRSFYGVQSYGINEGETPYETITEMAKKDIEALKEIQPAGPYTLWGYSFGARVAFETAYQLEQAGEKVDNLFLIAPGSPKVRAENGKVWGREASFANRGYTTILFSVFTGTISGPDLDRCLETVTDEASFAEFISELKGIDVDLARRIISVVGQTYEFEYSFHELAERTLQAPISIFKAVGDDYSFLENSSGYSAEPPTVIDLDADHYSLLREDIGELVKHIRYLLGE
BpsA activity in the presence of DMSO ([3]; 0-35% DMSO v/v, end-point A590 after full solubilisation): impaired at all concentrations of DMSO | DMSO concentration up to which BpsA retains partial functionality ([3]; 500 μM L-glutamine, DMSO v/v): up to 35% | Activity retained compared to recently purified BpsA ([4]; stored at 4° C.): 96% | Activity retained compared to recently purified BpsA ([4]; stored at 25° C.): 15%

B3: PptT: PPTase from Mycobacterium tuberculosis (protein)
chain: MTVGTLVASVLPATVFEDLAYAELYSDPPGLTPLPEEAPLIARSVAKRRNEFITVRHCARIALDQLGVPPAPILKGDKGEPCWPDGMVGSLTHCAGYRGAVVGRRDAVRSVGIDAEPHDVLPNGVLDAISLPAERADMPRTMPAALHWDRILFCAKEATYKAWFPLTKRWLGFEDAHITFETDSTGWTGRFVSRILIDGSTLSGPPLTTLRGRWSVERGLVLTAIVL
modifications: left off: small tags and cut ends
notes: PPTase from Mycobacterium tuberculosis
Ability of PPTase to activate BpsA [2]: similarly able to activate BpsA
